Results on six molecules are retold here after US20230235054A1 (BIOATLA, published 2023).

The EC50 is the concentration that produces a half-maximal response. The Kd is a measure of binding affinity in units of concentration. The term koff denotes the first-order rate constant of dissociation. By kon is commonly meant the rate constant with which the complex forms. Read a low kon as slower complex formation.

Substitutions are numbered along the chain they refer to.

B1: BAP-143-wildtype (antibody, V domains shown)
VH: EVQLVESGGGLVQPGGSLRLSCAASGFTFSSYNMNWVRQAPGKGLEWVSYISSSSSTIYYADSVKGRFTISRDNAKNSLSLQMNSLRDEDTAVYYCARAYYYGMDVWGQGTTVTVSS
VL: DIQMTQSPSSVSASVGDRVTITCRASQGISGWLAWYQQKPGKAPKFLIYAASTLQSGVPSRFSGSGSGTDFTLTISSLQPEDFATYYCQQANSFPPTFGGGTKVEIK
notes: 150 kDa used in SPR; also called BAP143-00-00; benchmark (BM)
B2: BAP-143-06-33-03 (antibody, V domains shown)
VH: QVQLVQSGAEVKKPGASVKVSCKASGFTFSSYNMNWVRQARGQRLEWIGYISSSSSTIYYADSVKGRFTISRDNSKNTLYLQMNSLRAEDTAVYYCARAYYYGMDKWGQGTLVTVSS
VL: B1 VL with F94E
notes: Used as a conjugate with a linker payload (CAB ADC)
B3: BAP-143-06-24-16 (antibody, V domains shown)
VH: EVQLVQSGAEVKKPGATVKISCKVSGFTFSSYNMNWIRQSPSRGLEWLGYISSSSSTIYYADSVKGRFTISRDNSKNTLYLQMNSLRAEDTAVYYCARAYYYGDDVWGQGTLVTVSS
VL: B1 VL with R24H
notes: as for B2
B4: BAP-143-07-03-12 (antibody, V domains shown)
VH: B1 VH with V106K
VL: B1 VL with L33E
notes: as for B2
B5: BAP-143-06-33-16 (antibody, V domains shown)
VH: B3 VH
VL: B1 VL with L33E
notes: as for B2
B6: BAP-143-00-01 (antibody, V domains shown)
VH: B1 VH
VL: B1 VL with L33E
notes: as for B2

In the first assay the target is T1, recombinant human Nectin4 antigen (human, UniProt Q96NY8 32-349).
T1 construct: construct not described
T1 sequence (looked up): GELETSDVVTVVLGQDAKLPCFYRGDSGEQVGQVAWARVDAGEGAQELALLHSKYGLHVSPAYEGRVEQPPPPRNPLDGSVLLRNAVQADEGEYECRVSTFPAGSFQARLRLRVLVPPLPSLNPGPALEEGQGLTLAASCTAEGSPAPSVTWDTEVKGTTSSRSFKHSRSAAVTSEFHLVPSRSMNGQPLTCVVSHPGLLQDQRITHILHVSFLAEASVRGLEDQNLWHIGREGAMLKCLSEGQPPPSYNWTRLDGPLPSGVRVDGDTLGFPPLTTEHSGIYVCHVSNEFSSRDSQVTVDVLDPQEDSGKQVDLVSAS
The assay is described as follows: ELISA, coated antigen, PSB pH 6.0. The method, then:
1) Coat ELISA plates with 100 μL of 1 μg/mL recombinant human Nectin4 antigen or cynoNectin4 antigen in carbonate-bicarbonate coating buffer. […] 2) Cover plates with sealing film and incubate overnight at 4° C. [0444] 3) Decant plates and tap out residual liquid on a stack of paper towels. [0445] 4) Wash wells twice by dispensing 200 μL of pH 6.0 or pH 7.4 ELISA incubation buffer to the wells and completely aspirate the contents. [0446] 5) Add 200 μL of pH 6.0 or pH 7.4 ELISA incubation buffer to the wells. Cover with sealing film and place the plate onto a plate shaker set to 50 rpm for 60 minutes at room temperature. [0447] 6) Decant plates and tap out residual liquid on a stack of paper towels. […] 7) Serially dilute test articles in 3-fold dilutions starting at 3000 ng/mL in pH 6.0 or pH 7.4 ELISA incubation buffer. […] 8) Add 100 μL/well of diluted test articles to the plates [0450] 9) Cover with sealing film and place the plates onto a plate shaker set to 50 rpm for 60 minutes at room temperature. [0451] 10) Decant plates and tap out residual liquid on a stack of paper towels. [0452] 11) Wash wells three times by dispensing 200 μL of pH 6.0 or pH 7.4 ELISA wash buffer to the wells and completely aspirate the contents. […] 12) Dilute the HRP secondary antibody at 1:2500 in pH 6.0 or pH 7.4 ELISA incubation buffer. [0454] […] 14) Cover with sealing film and place the plates onto a plate shaker set to 50 rpm for 60 minutes at room temperature. […] 15) Decant plates and tap out residual liquid on a stack of paper towels. […] 16) Wash wells three times by dispensing 200 μL of pH 6.0 or pH 7.4 ELISA wash buffer to the wells and completely aspirate the contents. [0458] 17) Dispense 50 μL per well of the TMB substrate solution into all wells of the plates.
For orientation: In an ELISA, binding on a coated surface is turned into a signal by an enzyme label.
Take B1: the EC50 came out at 0.0216 mg/L.

As to B2, the concentration giving a half-maximal response (EC50) was 0.0575 mg/L.

In the case of B3, the half-maximal effective concentration (EC50) is 0.0368 mg/L.

Regarding B4, the EC50 is 0.0533 mg/L.

Consider B5, for which the EC50 came out at 0.0669 mg/L.

Another assay has as its target T1, recombinant human Nectin4 antigen. Kind of assay: ELISA, coated antigen, PSB pH 7.4. The method, then: 1) Coat ELISA plates with 100 μL of 1 μg/mL recombinant human Nectin4 antigen or cynoNectin4 antigen in carbonate-bicarbonate coating buffer. […] 2) Cover plates with sealing film and incubate overnight at 4° C. [0444] 3) Decant plates and tap out residual liquid on a stack of paper towels. [0445] 4) Wash wells twice by dispensing 200 μL of pH 6.0 or pH 7.4 ELISA incubation buffer to the wells and completely aspirate the contents. [0446] 5) Add 200 μL of pH 6.0 or pH 7.4 ELISA incubation buffer to the wells. Cover with sealing film and place the plate onto a plate shaker set to 50 rpm for 60 minutes at room temperature. [0447] 6) Decant plates and tap out residual liquid on a stack of paper towels. […] 7) Serially dilute test articles in 3-fold dilutions starting at 3000 ng/mL in pH 6.0 or pH 7.4 ELISA incubation buffer. […] 8) Add 100 μL/well of diluted test articles to the plates [0450] 9) Cover with sealing film and place the plates onto a plate shaker set to 50 rpm for 60 minutes at room temperature. [0451] 10) Decant plates and tap out residual liquid on a stack of paper towels. [0452] 11) Wash wells three times by dispensing 200 μL of pH 6.0 or pH 7.4 ELISA wash buffer to the wells and completely aspirate the contents. […] 12) Dilute the HRP secondary antibody at 1:2500 in pH 6.0 or pH 7.4 ELISA incubation buffer. [0454] […]
In the case of B1, the EC50 is 0.0216 mg/L.

With B3, the EC50 was found to be 0.133 mg/L.

For a further assay, the target named is T2, RatNectin4-His (rat, UniProt D3ZET1 31-348).
T2 construct: Immobilized on the SPR chip; not shown: His tag
T2 sequence: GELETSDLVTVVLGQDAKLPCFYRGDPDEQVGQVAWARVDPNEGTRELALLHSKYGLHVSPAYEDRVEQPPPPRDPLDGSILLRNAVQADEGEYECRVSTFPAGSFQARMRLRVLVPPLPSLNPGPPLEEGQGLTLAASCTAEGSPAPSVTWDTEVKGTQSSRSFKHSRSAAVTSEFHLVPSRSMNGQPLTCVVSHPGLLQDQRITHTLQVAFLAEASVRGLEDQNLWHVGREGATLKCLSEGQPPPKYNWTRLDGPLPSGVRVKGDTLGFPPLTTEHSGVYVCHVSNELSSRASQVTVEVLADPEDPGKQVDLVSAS
Kind of assay: SPR, RatNectin4-His immobilized, pH 6.5. The method, then:
All injections were done at a flow rate of 25 μL/min at 25° C. The sensor surface was activated with 1-ethyl-3-(3-dimethylaminopropyl)-carbodiimide (EDC) and N-hydroxysuccinimide (NHS) (200 mM/50 mM) for 480 seconds. HuNectin4-His (2 μg/mL in 10 mM NaAc, pH4.5) was injected for 480s and the surface was inactivated by injecting 1M ethanolamine-HCl for 480s. CynoNectin4 was immobilized using the same conditions as described for huNectin4-His, except that the cynoNectin4 was diluted into 10 mM NaAc buffer having pH 5.0. The control surface was activated and deactivated using the same conditions, but without injecting protein. PBST buffer (PBS pH 7.4 with 0.05% TWEEN20™) was used as running buffer for the surface preparation. The running solution was switched to PBST with 30 mM sodium bicarbonate with the pH adjusted as indicated in the figures before the analyte injections. The instrument was equilibrated with the running solution for one hour before the first analyte injection.
The off-rate was measured for 360s. The chip surface was regenerated after each cycle of interaction analysis by injecting 6 μL of 10 mM glycine (pH 2.0). Flow cells 1 and 3 without immobilized protein were used as control surfaces for reference subtraction.
In addition, data with buffer only as analyte (0 nM analyte) was subtracted from each run. Double subtracted data was fitted with the provided analysis software Analyzer R2 (Sierra Sensors) using a 1:1 binding model. A molecular weight of 150 kDa was used to calculate the molar concentrations of the analytes. RatNectin4-His was immobilized in FC3 using the same conditions as described for cynoNectin4.
Turning to B1, the Kd amounted to 0.108 nM.

For the molecule B3, the Kd is 0.0378 nM, the koff came to 0.000128 s⁻¹ and the kon is 3.39e+06 M⁻¹ s⁻¹.

The molecule B6 showed a Kd of 1.36 nM, a koff of 0.000953 s⁻¹ and a kon of 700000 M⁻¹ s⁻¹.

Molecule B4 had an equilibrium dissociation constant (Kd) of 1.1 nM, a koff of 0.000868 s⁻¹ and a kon of 787000 M⁻¹ s⁻¹.

Take B5: the Kd amounted to 0.101 nM, the koff stood at 0.000304 s⁻¹ and the kon worked out at 3.01e+06 M⁻¹ s⁻¹.

The target of another assay is T3, cyno Nectin-4 on cells (cyno, UniProt A0A2K5WES1 32-510).
T3 construct: whole, on cells; also called HEK293 cells expressing cyno Nectin-4; cyno Nectin-4 cells
T3 sequence: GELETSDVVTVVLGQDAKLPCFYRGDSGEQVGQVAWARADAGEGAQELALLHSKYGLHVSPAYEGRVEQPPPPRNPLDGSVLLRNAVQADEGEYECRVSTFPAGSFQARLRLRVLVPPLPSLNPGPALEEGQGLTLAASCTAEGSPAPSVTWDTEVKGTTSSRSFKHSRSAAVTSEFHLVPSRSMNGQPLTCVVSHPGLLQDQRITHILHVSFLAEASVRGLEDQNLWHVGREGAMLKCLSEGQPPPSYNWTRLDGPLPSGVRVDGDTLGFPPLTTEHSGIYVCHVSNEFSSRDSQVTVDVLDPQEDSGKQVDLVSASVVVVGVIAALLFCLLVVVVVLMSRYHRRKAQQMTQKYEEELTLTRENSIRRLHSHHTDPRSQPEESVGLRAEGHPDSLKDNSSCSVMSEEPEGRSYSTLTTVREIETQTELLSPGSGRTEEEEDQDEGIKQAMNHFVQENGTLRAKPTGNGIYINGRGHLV
Kind of assay: FACS, HEK293 cells expressing cyno Nectin-4. On the technique in general: Flow cytometry measures light scatter and fluorescence of single cells or particles in a stream.
As to B2, the “Ratio (pH 7.4/6.0) of EC50” value is 2.7.

Take B3: the “Ratio (pH 7.4/6.0) of EC50” value stood at 1.4.

As to B6, the “Ratio (pH 7.4/6.0) of EC50” value worked out at 2.

B4: the “Ratio (pH 7.4/6.0) of EC50” value worked out at 1.8.

Consider B5, for which the “Ratio (pH 7.4/6.0) of EC50” value was determined as 1.5.
